The labels stand for the following.
B1: SuhB (inositol mono-phosphatase SuhB), wild type (natural protein)
chain: MHPMLNIAVRAARKAGNLIAKNYETPDAVEASQKGSNDFVTNVDKAAEAVIIDTIRKSYPQHTIITEESGELEGTDQDVQWVIDPLDGTTNFIKRLPHFAVSIAVRIKGRTEVAVVYDPMRNELFTATRGQGAQLNGYRLRGSTARDLDGTILATGFPFKAKQYATTYINIVGKLFNECADFRRTGSAALDLAYVAAGRVDGFFEIGLRPWDFAAGELLVREAGGIVSDFTGGHNYMLTGNIVAGNPRVVKAMLANMRDELSDALKR
B2: N-terminally His6-tagged NusA^AR2 (domain or fragment)
chain: DNKPADDLLNLEGVDRDLAFKLAARGVCTLEDLAEQGIDDLADIEGLTDEKAGALIMAARNICWFGDEA

Holding throughout (experiment): SPR
Background: Surface plasmon resonance follows binding to a sensor surface in real time, without labels.

Test [1] has as its target B2.
The target of test [2] is SuhB^K108A (E. coli, UniProt P0ADG4 1-267, K108A).
Test [3] addresses SuhB^KL251/254AA (E. coli, UniProt P0ADG4 1-267, KL251/254AA | KL251/254AA).

For B1, the dissociation rate constant (koff) in test [1] came to 0.0555 s⁻¹.

Take B2: the koff in test [2] was 0.0498 s⁻¹; in test [3], 0.341 s⁻¹.

As a reminder, the koff is a measure of how fast the partners let go of each other. Low values mean a long-lived complex, high ones a short-lived complex.

The values above are taken from paper PMC6614801 (2019).
